For assay [1], the target named is T1, human DPP IV recombinant protein (human, UniProt P27487 29-766).
T1 construct: extracellular domain; Bought protein; also called Dipeptidyl amino-peptidase IV
Kind of assay: ELISA, coated human DPP IV, HA-His6-tagged VHH extract, anti-HA detection. The method, then:
(§1) The day before measurement, 0.1 μg recombinant protein at a concentration of 1 μg/mL in 100 mM NaHCO₃, pH 8.2 was coated in a 96-well ELISA plate (Nunc MaxiSorp). Per VHH clone also a blank coated well was foreseen (only buffer). The wells were overcoated with protein-free T20 (PBS) blocking buffer (Pierce). After washing with PBS, pH7.4, 0.05% Tween, VHH-containing bacterial freeze-thaw extract was added to every well. Binding of HA-His₆-tagged VHHs was detected by using mouse anti-HA.11 epitope tag (clone 16B12, Biolegend) as the primary Ab and goat anti-mouse IgG (whole molecule) alkaline phosphatase conjugate (Sigma-Aldrich) as the secondary Ab, with thorough washing with PBS, pH 7.4, 0.05% Tween in between. Signals were developed using phosphatase substrate (Sigma-Aldrich) in AP blot buffer (100 mM NaCl, 50 mM MgCl₂, 100 mM Tris, pH 9.5). The absorbance was determined at 405 nm using an absorbance microplate reader (Molecular Devices). Per clone the ratio was determined between the absorbance in the antigen-coated well versus the well without antigen.
Background: An ELISA detects its analyte on a solid surface through an enzyme-linked reagent.

Assay [2] deals with T1, human DPP IV recombinant protein. As to the kind of experiment: ELISA on coated recombinant protein, VHH-containing bacterial extract, anti-HA detection, signal-to-background ratio. The method, then:
as §1

Assay [3] addresses T2, human FAP recombinant protein (human, UniProt Q12884 26-760).
T2 construct: The protein was biotinylated with sulfo-NHS-SS-biotin for bio-layer interferometry; also called extracellular domain of human FAP with N-terminal His6-tag
T2 sequence: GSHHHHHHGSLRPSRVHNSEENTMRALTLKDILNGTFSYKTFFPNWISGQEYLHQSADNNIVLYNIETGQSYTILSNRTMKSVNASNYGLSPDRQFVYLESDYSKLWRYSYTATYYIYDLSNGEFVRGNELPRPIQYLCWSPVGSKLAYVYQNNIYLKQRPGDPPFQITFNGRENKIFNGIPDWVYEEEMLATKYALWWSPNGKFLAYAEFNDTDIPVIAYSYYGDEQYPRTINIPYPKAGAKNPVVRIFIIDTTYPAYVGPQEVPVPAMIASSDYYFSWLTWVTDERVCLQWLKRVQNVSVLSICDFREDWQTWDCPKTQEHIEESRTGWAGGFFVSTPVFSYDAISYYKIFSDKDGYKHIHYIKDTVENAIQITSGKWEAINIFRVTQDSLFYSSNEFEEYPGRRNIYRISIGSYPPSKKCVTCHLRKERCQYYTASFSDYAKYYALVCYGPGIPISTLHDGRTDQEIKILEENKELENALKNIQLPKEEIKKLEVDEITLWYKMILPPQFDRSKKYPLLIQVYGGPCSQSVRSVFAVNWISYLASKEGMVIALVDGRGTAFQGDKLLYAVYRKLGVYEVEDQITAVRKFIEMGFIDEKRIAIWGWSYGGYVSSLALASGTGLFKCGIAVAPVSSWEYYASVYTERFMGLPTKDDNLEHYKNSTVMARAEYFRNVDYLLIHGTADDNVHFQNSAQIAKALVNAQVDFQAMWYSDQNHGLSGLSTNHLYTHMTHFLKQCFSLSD
Kind of assay: ELISA, coated human FAP recombinant protein, HA-His6-tagged VHH extract, anti-HA detection. The method, then: as §1

Assay [4] deals with T3, human FAP expressed on cells (human, UniProt Q12884 1-760).
T3 construct: also called human FAP cell surface protein; human FAP receptor
T3 sequence: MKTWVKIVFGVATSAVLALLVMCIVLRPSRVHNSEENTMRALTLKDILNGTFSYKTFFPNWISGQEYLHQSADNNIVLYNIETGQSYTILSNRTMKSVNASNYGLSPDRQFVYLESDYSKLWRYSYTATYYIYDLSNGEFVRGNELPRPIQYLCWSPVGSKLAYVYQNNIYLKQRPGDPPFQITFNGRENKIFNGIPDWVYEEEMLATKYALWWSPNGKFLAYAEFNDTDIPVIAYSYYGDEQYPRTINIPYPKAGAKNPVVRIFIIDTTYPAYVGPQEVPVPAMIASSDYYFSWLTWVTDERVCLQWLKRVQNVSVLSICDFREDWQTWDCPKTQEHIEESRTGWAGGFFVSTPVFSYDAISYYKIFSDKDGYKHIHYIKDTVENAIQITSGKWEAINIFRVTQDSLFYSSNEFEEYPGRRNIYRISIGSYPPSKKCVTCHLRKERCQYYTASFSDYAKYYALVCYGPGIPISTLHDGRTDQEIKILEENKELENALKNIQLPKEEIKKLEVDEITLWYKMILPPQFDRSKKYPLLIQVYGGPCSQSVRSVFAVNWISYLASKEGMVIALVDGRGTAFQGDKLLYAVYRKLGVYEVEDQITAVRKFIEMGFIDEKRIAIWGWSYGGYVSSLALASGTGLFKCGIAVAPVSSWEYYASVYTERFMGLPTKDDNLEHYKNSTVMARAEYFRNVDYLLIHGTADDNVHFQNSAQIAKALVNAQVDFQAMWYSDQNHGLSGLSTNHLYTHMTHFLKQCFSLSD
Kind of assay: saturation binding of 131I-SGMIB-labelled VHH on human FAP-transfected HEK-293 cells; HEK-293 cells. The method, then: (§2) In a first part, the in vitro behaviour was assessed by means of investigating their cellular binding and retention overtime. The binding potential of the resulting radioconjugates was assessed to confirm that this was not affected by the introduction of ¹³¹I-SGMIB into the amino acid sequence of the VHH. To this, human FAP-expressing GM05389 (His₆-tagged and untagged VHH B1) and human FAP-transfected HEK-293 cells (His₆-tagged and untagged VHH B1; His₆-tagged VHH B2) were incubated with serial dilutions with concentrations ranging from 0 to 33 nM of the different ¹³¹I-labelled VHHs. A 100-fold excess of the corresponding unlabeled VHH was added in parallel to saturate the human FAP receptors expressed on cancer cells, to assess non-specific binding.

For assay [5], the target named is T3, human FAP expressed on cells. Kind of assay: saturation binding of 131I-SGMIB-labelled VHH on human FAP-expressing GM05389 cells; GM05389 cells. The method, then: as §2
The target of assay [6] is T4, murine FAP expressed on cells (murine, UniProt P97321 1-761).
T4 construct: also called murine FAP cell surface protein
T4 sequence: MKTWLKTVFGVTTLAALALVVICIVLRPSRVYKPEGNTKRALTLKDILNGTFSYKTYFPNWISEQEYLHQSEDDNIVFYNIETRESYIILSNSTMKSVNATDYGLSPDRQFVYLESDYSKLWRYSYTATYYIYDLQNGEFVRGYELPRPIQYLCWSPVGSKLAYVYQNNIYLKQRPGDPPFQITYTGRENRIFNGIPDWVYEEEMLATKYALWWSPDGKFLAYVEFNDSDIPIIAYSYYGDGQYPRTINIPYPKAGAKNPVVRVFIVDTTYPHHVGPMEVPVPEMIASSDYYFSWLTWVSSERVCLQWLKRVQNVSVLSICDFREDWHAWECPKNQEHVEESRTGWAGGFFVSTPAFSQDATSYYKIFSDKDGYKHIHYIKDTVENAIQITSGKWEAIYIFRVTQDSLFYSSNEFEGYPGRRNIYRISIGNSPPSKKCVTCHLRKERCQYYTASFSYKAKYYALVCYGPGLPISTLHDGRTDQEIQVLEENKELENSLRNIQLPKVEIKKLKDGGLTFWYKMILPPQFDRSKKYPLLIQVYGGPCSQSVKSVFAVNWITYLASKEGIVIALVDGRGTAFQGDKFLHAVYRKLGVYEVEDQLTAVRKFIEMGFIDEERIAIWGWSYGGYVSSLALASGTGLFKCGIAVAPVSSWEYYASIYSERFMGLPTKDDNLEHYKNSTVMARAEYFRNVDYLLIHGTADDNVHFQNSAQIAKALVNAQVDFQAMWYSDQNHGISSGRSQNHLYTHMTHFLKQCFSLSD
Kind of assay: saturation binding of 99mTc-labelled VHH on murine FAP-expressing HEK-293 cells. The method, then: (§3) Next, the different cell lines were incubated with serial dilutions with concentrations ranging from 0 to 300 nM of the different ^99mTc-labelled His₆-tagged VHHs. A 100-fold excess of the corresponding unlabeled VHH was added in parallel to saturate the human or murine FAP proteins on the cancer cell surface, to assess non-specific binding. The resulting EC50 values for each of the VHHs are depicted in Table 8. […] We confirmed that ^99mTc-labeled VHH B4 only binds murine FAP cell surface protein, while VHH B3 only binds human FAP cell surface molecules in vitro.

The target of assay [7] is T3, human FAP expressed on cells. Kind of assay: saturation binding of 99mTc-labelled VHH on human FAP-expressing GM05389 cells. The method, then: as §3
Assay [8] concerns the target T4, murine FAP expressed on cells. As to the kind of experiment: saturation binding of 99mTc-labelled VHH on murine FAP-expressing HEK-293 cells (mean ± SD, n = 3). The method, then:
(§4) Next, we describe the in vitro and in vivo human and murine FAP binding potential of different VHHs after radiolabelling with the diagnostic radioisotope ^99mTc. […] His₆-tagged human/murine FAP-targeting VHHs were radiolabelled with the diagnostic radioisotope ^99mTc, according to the radiochemical procedure described in Example 3.
as §3

The target of assay [9] is T3, human FAP expressed on cells. As to the kind of experiment: saturation binding of 99mTc-labelled VHH on human FAP-expressing GM05389 cells (mean ± SD, n = 3). The method, then: as §4, §3
For assay [10] the target is unchanged. As to the kind of experiment: saturation binding of 99mTc-labelled VHH on human FAP-expressing HEK-293 cells (mean ± SD, n = 3). The method, then:
as §4, §3

T1 sequence (P27487 29-766): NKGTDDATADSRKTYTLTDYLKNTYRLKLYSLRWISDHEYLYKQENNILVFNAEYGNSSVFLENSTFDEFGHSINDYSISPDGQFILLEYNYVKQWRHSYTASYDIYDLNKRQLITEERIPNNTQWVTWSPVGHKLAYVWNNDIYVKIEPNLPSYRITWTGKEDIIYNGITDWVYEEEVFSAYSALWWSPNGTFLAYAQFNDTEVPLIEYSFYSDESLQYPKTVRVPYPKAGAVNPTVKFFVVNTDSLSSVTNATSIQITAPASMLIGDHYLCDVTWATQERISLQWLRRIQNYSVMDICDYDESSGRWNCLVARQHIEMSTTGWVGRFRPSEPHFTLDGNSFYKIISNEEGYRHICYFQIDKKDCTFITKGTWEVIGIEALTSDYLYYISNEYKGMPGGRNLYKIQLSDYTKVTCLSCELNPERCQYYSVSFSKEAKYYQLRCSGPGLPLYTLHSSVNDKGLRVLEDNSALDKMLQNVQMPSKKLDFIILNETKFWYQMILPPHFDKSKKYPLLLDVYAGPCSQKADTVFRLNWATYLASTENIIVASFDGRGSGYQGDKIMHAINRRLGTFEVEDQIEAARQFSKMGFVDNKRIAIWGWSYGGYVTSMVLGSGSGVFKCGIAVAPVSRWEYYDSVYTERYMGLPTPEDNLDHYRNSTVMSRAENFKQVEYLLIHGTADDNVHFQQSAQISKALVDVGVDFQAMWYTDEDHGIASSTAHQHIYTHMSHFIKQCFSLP

B1: HA-His6-tagged VHH B2 (VHH)
VHH: QVQLQESGGGLVQAGGSLRLSCAVSGSISSANSMGWYRQAPGKQRDVVAGLTTGGRSHYADSVKGRFTISRDNAKNTVYLQMNSLKAEDTAVYYCNLWPPVQGYWGQGTQVTVSS
notes: also called B2 with HA-His6-tag
For B1, the signal-to-background ratio in assay [1] was roughly 1; in [3], greater than 25. In addition, the binding result in assay [2] is “no binding”.

B2: 131I-labeled His6-tagged VHH B2 (VHH)
VHH: DVQLVESGGGLVQAGGSLRLSCAVSGSISSANSMGWYRQAPGKQRDVVAGLTTGGRSHYADSVKGRFTISRDNAKNTVYLQMNSLKAEDTAVYYCNLWPPVQGYWGQGTQVTVSS
modifications: [131I]SGMIB conjugated to lysine side-chain amines
notes: also called 131I-B2; His6-tagged B2
What is called EC50 is the concentration giving half of the maximal effect. A higher EC50 goes with lower potency in that assay. The molecule B2 showed a concentration for a half-maximal effect (EC50) in assay [4] of 3.8 nM.

B3: HA-His6-tagged VHH B1 (VHH)
VHH: QVQLQESGGGLVQPGGSLRLSCVASGRLSSSNSMAWYRQVPGKRRELVAGITGGGETNYADFVGGRFTISRDNAKNGLYLQLNGLKPEDTAAYYCNFWPPLINYWGQGTQVTVSS
notes: Used as bacterial freeze-thaw extract in ELISA and flow cytometry, and at 1 µM in the enzyme assay; also called B1 with HA-His6-tag
As for B3, the signal-to-background ratio in [1] was roughly 1; in assay [3], greater than 25. In addition, the binding result in [2] is recorded as “no binding”.

B4: 131I-labeled His6-tagged VHH B1 (VHH)
VHH: DVQLVESGGGLVQPGGSLRLSCVASGRLSSSNSMAWYRQVPGKRRELVAGITGGGETNYADFVGGRFTISRDNAKNGLYLQLNGLKPEDTAAYYCNFWPPLINYWGQGTQVTVSS
modifications: [131I]SGMIB conjugated to lysine side-chain amines
notes: also called 131I-B1; His6-tagged B1
On to B4, for which the values for the 50% effective concentration (EC50) in assay [4] and in assay [5] were 1.4 nM and 0.6 nM, respectively.

B5: 131I-labeled untagged VHH B1 (VHH)
VHH: DVQLVESGGGLVQPGGSLRLSCVASGRLSSSNSMAWYRQVPGKRRELVAGITGGGETNYADFVGGRFTISRDNAKNGLYLQLNGLKPEDTAAYYCNFWPPLINYWGQGTQVTVSS
modifications: [131I]SGMIB conjugated to lysine side-chain amines
notes: also called untagged B1; [131I]SGMIB-VHH
For B5, the figures for the 50% effective concentration (EC50) in assay [4] and in [5] were 2.8 nM and 2.7 nM, respectively.

B6: 99mTc-labeled non-targeting control VHH R3B23 (VHH)
VHH: QVQLQESGGGSVQAGGSLRLSCAASGDTGYMGWFRQAPGKEREGVAVINSDSGVGSTYYADSVKGRFTISRDNAKNTVYLQMNSLKPEDTAIYYCAAGHFSDYVSPWTWREIYRYNVWGQGTQVTVSS
modifications: 99mTc label (labelling is described at the His6-tag)
notes: also called 99mTc-R3B23
In the case of B6, the binding result in assay [6] and in [7] was “no binding (tested: 0 to 300 nM)” each time.

B7: 99mTc-labeled His6-tagged VHH B4 (VHH)
VHH: DVQLVESGGGLVQVGGSLRLSCVASGFTFSSYYMSWVRQAPGKGLEWVASIYADGDMTYYADSVRGRFTISRDNAKNTLYLQMNSLKSEDTAVYYCAKDPLPPYHVNQGTQVTVSS
modifications: [99mTc(H2O)3(CO)3] complexed at the His6-tag
notes: also called 99mTc-B4
In the case of B7, in assay [7], the binding result is listed as “no binding (tested: 0 to 300 nM)”. The molecule further displayed an EC50 in assay [8] of 7.6 nM.

B8: 99mTc-labeled His6-tagged VHH B3 (VHH)
VHH: DVQLVESGGGLVQAGGSLRLSCAVSGRLFSTNAMGWYRQAPGKQRELVAGITGGDRSNYADSVKGRFTISRDNGKNTLYLQMNSLKPEDTAVYYCNFYPPIVGDYWGQGTQVTVSS
modifications: [99mTc(H2O)3(CO)3] complexed at the His6-tag
notes: also called 99mTc-B3
For the molecule B8, the binding result in assay [6] was “no binding (tested: 0 to 300 nM)”. For the same molecule, the figures for the EC50 in assay [9] and in [10] were 2.7 nM and 2.4 nM, respectively.

The values above are taken from patent publication US20230381350A1 (PRECIRIX N V, published 2023).
